Test results reported in the PETadex activity labels.

Tests used:
[1] = substrate: p-NP-C2
[2] = substrate: p-NP-C4
[3] = pH 7.2, part of the chain shown

B1: unnamed (protein)
chain: MSKISEAVKRARAAFSSGRTRPLQFRIQQLEALQRLIQEQEQELVGALAADLHKNEWNAYYEEVVYVLEEIEYMIQKLPEWAADEPVEKTPQTQQDELYIHSEPLGVVLVIGTWNYPFNLTIQPMVGAIAAGNSVVLKPSELSENMASLLATIIPQYLDKDLYPVINGGVPETTELLKERFDHILYTGSTGVGKIIMTAAAKHLTPVTLELGGKSPCYVDKNCDLDVACRRIAWGKFMNSGQTCVAPDYILCDPSIQNQIVEKLKKSLKEFYGEDAKKSRDYGRIISARHFQRVMGLIEGQKVAYGGTGDAATRYIAPTILTDVDPQSPVMQEEIFGPVLPIVCVRSLEEAIQFINQREKPLALYMFSSNDKVIKKMIAETSSGGVAANDVIVHITLHSLPFGGVGNSGMGSYHGKKSFETFSHRRSCLVRPLMNDEGLKVRYPPSPAKMTQH
[1]; pH 7.4, 25 °C
  Km: 200 µM
  kcat: 1.43 s⁻¹
  kcat/Km: 7170 M⁻¹ s⁻¹

B2: unnamed (protein)
chain: MWLLPLVLTSLASSATWAGQPASPPVVDTAQGRVLGKYVSLEGLAQPVAVFLGVPFAKPPLGSLRFAPPQPAEPWSFVKNTTSYPPMCCQDPVVEQMTSDLFTNGKERLTLEFSEDCLYLNIYTPADLTKRGRLPVMVWIHGGGLVLGGAPMYDGVVLAAHENVVVVAIQYRLGIWGFFSTGDEHSRGNWGHLDQVAALHWVQENIANFGGDPGSVTIFGESAGGESVSVLVLSPLAKNLFHRAISESGVALTVALVRKDMKAAAKQIAVLAGCKTTTSAVFVHCLRQKSEDELLDLTLKMKFLTLDFHGDQRESHPFLPTVVDGVLLPKMPEEILAEKDFNTVPYIVGINKQEFGWLLPTMMGFPLSEGKLDQKTATSLLWKSYPIANIPEELTPVATDKYLGGTDDPVKKKDLFLDLMGDVVFGVPSVTVARQHRDAGAPTYMYEFQYRPSFSSDKKPKTVIGDHGDEIFSVFGFPLLKGDAPEEEVSLSKTVMKFWANFARSGNPNGEGLPHWPMYDQEEGYLQIGVNTQAAKRLKGEEVAFWNDLLSKEAAKKPPKIKHAEL
[1]; pH 7.4, 37 °C
  Km: 520 µM
  kcat: 20.2 s⁻¹
  kcat/Km: 38800 M⁻¹ s⁻¹
[2]; pH 7.4, 37 °C
  Km: 140 µM
  kcat: 27.4 s⁻¹
  kcat/Km: 196000 M⁻¹ s⁻¹

B3: unnamed (protein)
chain: MSEEVSKNLSETLFVKHKQAKETSALTQYMPTSQSLLDEIKEKNGFSWYRNLRRLQWVWQGVDPIEQEQVLARIASSKHSRTDEQWLDTVMGYHSGNWAYEWTRLGMEHQKRAGEMTNEAASEALFSASLCYSIAGYPHLKSDNLAIQAQVLANSAYLEAAKKSKYIIKQLEIPFEKGKITAHLHLTNTDKPHPVVIVSAGLDSLQTDMWRLFRDHLAKHDIAMLTVDMPSVGYSSKYPLTEDYSRLHQAVLNELFSIPYVDHHRVGLIGFRFGGNAMVRLSFLEQEKIKACVILGAPIHDIFASPQKLQQMPKMYLDVLASRLGKSVVDIYSLSGQMAAWSLKVQGFLSSRKTKVPILAMSLEGDPVSPYSDNQMVAFFSTYGKAKKISSKTITQGYEQSLDLAIKWLEDELLR
[1]; pH 7.5, 25 °C
  Km: 18600 µM
  kcat: 0.67 s⁻¹
  kcat/Km: 36 M⁻¹ s⁻¹

B4: unnamed (protein)
chain: MTVTDIILIHGALNRGACYDAVVPLLEARGYRVHAPDLTGHTPGDGGHLSVVDMEHYTRPVADILARAEGQSILLGHSLGGASISWLAQHHPDKVAGLIYLTAVLTAPGITPETFVLPGEPNRGTPHALDLIQPVDEGRGLQADFSRLERLREVFMGDYPGEGMPPAEQFIQTQSTVPFGTPNPMEGRALEIPRLYIEALDDVVIPIAVQRQMQKEFPGPVAVVSLPASHAPYYSMPERLAEAIADFADAPAEYRQTATKAGPDRPAGADGGRADRADLP
[1]; pH 7.5, 37 °C
  Km: 124 µM
  kcat: 183 s⁻¹
  kcat/Km: 1.48e+06 M⁻¹ s⁻¹

B5: unnamed (protein)
chain: MRKAPLLRFTLASLALACSQALAGPSPYSTLIVFGDSLADAGQFPDLVGGTPGARFTNRDADGNFAPVSPMILGGRLGVAPGDLNPSTSVGIQPDGNNWAVGGYTTQQILDSITTTSETVIPPGNPNAGLVLRERPGYLANGLRADPNALYYLTGGGNDFLQGLVNSPADAVAAGARLAASAQALQQGGARYIMVWLLPDLGQTPNFSGTPQQNPLSLLSAAFNQSLISQLGQIDAQIIPLNIPLLLSEALASPSQFGLASDQNLVGTCYSGDSCVENPVYGINGTTPDPTKLLFNDSVHPTIAGQQLIADYAYSILAAPWELTLLPEMAHASLRAHQDELRNQWQTPWQAVGQWQAFVASGAQDLDFDGQHSAASGDGRGYNLTVGGSYRLNDAWRLGLAGGANRQKLEAGEQDSDYKLNSYMASAFAQYRQDRWWADAALTAGHLDYSDLKRTFALGVNDRSEKGDTDGEAWAMSGRLGYNLAADTSNWQLAPFISADYARVKVDGYDEKSGRSTALGFDDQERTSRRLGVGLLGSVQVLPSTRLFAEVAQEHEFEDDEQDVTMHLTSLPANDFTLTGYTPHSDLTRASLGVSHELVAGVHLRGNYNWRKSDELTQQGISVGVSVDF
[2]; pH 7.2
  Km: 300 µM

B6: unnamed (protein)
chain: MIRMALKPLVAACLLASLSTAPQAAPSPYSTLVVFGDSLSDAGQFPDPAGPAGSTSRFTNRVGPTYQNGSGEIFGPTAPMLLGNQLGIAPGDLAASTSPVNAQQGIADGNNWAVGGYRTDQIYDSITAANGSLIERDNTLLRSRDGYLVDRARQGLGADPNALYYITGGGNDFLQGRILNDVQAQQAAGRLVDSVQALQQAGARYIVVWLLPDLGLTPATFGGPLQPFASQLSGTFNAELTAQLSQAGANVIPLNIPLLLKEGMANPASFGLAADQNLIGTCFSGNGCTMNPTYGINGSTPDPSKLLFNDSVHPTITGQRLIADYTYSLLSAPWELTLLPEMAHGTLRAYQDELRSQWQADWENWQNVGQWRGFVGGGGQRLDFDSQDSAASGDGNGYNLTLGGSYRIDEAWRAGVAAGFYRQKLEAGAKDSDYRMNSYMASAFVQYQENRWWADAALTGGYLDYDDLKRKFALGGGERSEKGDTNGHLWAFSARLGYDIAQQADSPWHLSPFVSADYARVEVDGYSEKGASATALDYDDQKRSSKRLGAGLQGKYAFGSDTQLFAEYAHEREYEDDTQDLTMSLNSLPGNRFTLEGYTPQDHLNRVSLGFSQKLAPELSLRGGYNWRKGEDDTQQSVSLALSLDF
[2]; pH 7.2
  Km: 700 µM
  kcat: 247 s⁻¹
  kcat/Km: 353000 M⁻¹ s⁻¹

B7: unnamed (protein)
chain: MRALLLSGCLALVLLTQQAAAQTLLVVGDSISAALGLDTSQGWVALLQKRLADEGYDYRVVNASISGDTSAGGLARLPALLAEEKPALVVIELGGNDGLRGMAPAQLQQNLASMAQKARAEGAKVLLLGIQLPPNYGPRYIEAFSRVYGAVAAQEKTALVPFFLEGVGGVQGMMQADGIHPALAAQPRLLENVWPTLKPLL
[2]; [3]
  Km: 1000 µM
  kcat: 12 s⁻¹
  kcat/Km: 12000 M⁻¹ s⁻¹

B8: unnamed (protein)
chain: MDGVLWRVRTAALMAALLALAAWALVWASPSVEAQSNPYQRGPNPTRSALTADGPFSVATYTVSRLSVSGFGGGVIYYPTGTSLTFGGIAMSPGYTADASSLAWLGRRLASHGFVVLVINTNSRFDYPDSRASQLSAALNYLRTSSPSAVRARLDANRLAVAGHSMGGGGTLRIAEQNPSLKAAVPLTPWHTDKTFNTSVPVLIVGAEADTVAPVSQHAIPFYQNLPSTTPKVYVELDNASHFAPNSNNAAISVYTISWMKLWVDNDTRYRQFLANVNDPALSDFRTNNRHAQ
[2]; pH 8, 30 °C
  Km: 250 µM
  kcat: 342 s⁻¹
  kcat/Km: 1.37e+06 M⁻¹ s⁻¹
[2]; pH 8, 50 °C
  Km: 180 µM
  kcat: 196 s⁻¹
  kcat/Km: 1.09e+06 M⁻¹ s⁻¹
[2]; pH 8, 70 °C
  Km: 190 µM
  kcat: 49 s⁻¹
  kcat/Km: 258000 M⁻¹ s⁻¹

B9: unnamed (protein)
chain: MWLRAFILATLSASAAWGHPSSPPVVDTVHGKVLGKFVSLEGFAQPVAIFLGIPFAKPPLGPLRFTPPQPAEPWSFVKNATSYPPMCTQDPKAGQLLSELFTNRKENIPLKLSEDCLYLNIYTPADLTKKNRLPVMVWIHGGGLMVGAASTYDGLALAAHENVVVVTIQYRLGIWGFFSTGDEHSRGNWGHLDQVAALRWVQDNIASFGGNPGSVTIFGESAGGESVSVLVLSPLAKNLFHRAISESGVALTSVLVKKGDVKPLAEQIAITAGCKTTTSAVMVHCLRQKTEEELLETTLKMKFLSLDLQGDPRESQPLLGTVIDGMLLLKTPEELQAERNFHTVPYMVGINKQEFGWLIPMQLMSYPLSEGQLDQKTAMSLLWKSYPLVCIAKELIPEATEKYLGGTDDTVKKKDLFLDLIADVMFGVPSVIVARNHRDAGAPTYMYEFQYRPSFSSDMKPKTVIGDHGDELFSVFGAPFLKEGASEEEIRLSKMVMKFWANFARNGNPNGEGLPHWPEYNQKEGYLQIGANTQAAQKLKDKEVAFWTNLFAKKAVEKPPQTEHIEL
[2]; pH 8, 37 °C
  Km: 27 µM
  kcat: 17 s⁻¹
  kcat/Km: 630000 M⁻¹ s⁻¹

B10: unnamed (protein)
chain: MRLHRLRARLSAVACGLLLLLVRGQGQDSASPIRTTHTGQVLGSLVHVKGANAGVQTFLGIPFAKPPLGPLRFAPPEPPESWSGVRDGTTHPAMCLQDLTAVESEFLSQFNMTFPSDSMSEDCLYLSIYTPAHSHEGSNLPVMVWIHGGALVFGMASLYDGSMLAALENVVVVIIQYRLGVLGFFSTGDKHATGNWGYLDQVAALRWVQQNIAHFGGNPDRVTIFGESAGGTSVSSLVVSPISQGLFHGAIMESGVALLPGLIASSADVISTVVANLSACDQVDSEALVGCLRGKSKEEILAINKPFKMIPGVVDGVFLPRHPQELLASADFQPVPSIVGVNNNEFGWLIPKVMRIYDTQKEMDREASQAALQKMLTLLMLPPTFGDLLREEYIGDNGDPQTLQAQFQEMMADSMFVIPALQVAHFQCSRAPVYFYEFQHQPSWLKNIRPPHMKADHGDELPFVFRSFFGGNYIKFTEEEEQLSRKMMKYWANFARNGNPNGEGLPHWPLFDQEEQYLQLNLQPAVGRALKAHRLQFWKKALPQKIQELEEPEERHTEL
[2]; pH 8, 37 °C
  Km: 31 µM
  kcat: 70 s⁻¹
  kcat/Km: 2.26e+06 M⁻¹ s⁻¹
